What all share (test): SPR, mAb captured, C2 mutant analyte;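 further: Anti-C2 mAbs captured on goat anti-human IgG Biacore CM5 chips, alanine or serine C2 surface mutants flowed over at 37 °C, double-referenced sensorgrams fitted to a 1:1 binding model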
The target in assay [1] is T1, human C2 D417A (human, UniProt P06681 21-752).
T1 sequence: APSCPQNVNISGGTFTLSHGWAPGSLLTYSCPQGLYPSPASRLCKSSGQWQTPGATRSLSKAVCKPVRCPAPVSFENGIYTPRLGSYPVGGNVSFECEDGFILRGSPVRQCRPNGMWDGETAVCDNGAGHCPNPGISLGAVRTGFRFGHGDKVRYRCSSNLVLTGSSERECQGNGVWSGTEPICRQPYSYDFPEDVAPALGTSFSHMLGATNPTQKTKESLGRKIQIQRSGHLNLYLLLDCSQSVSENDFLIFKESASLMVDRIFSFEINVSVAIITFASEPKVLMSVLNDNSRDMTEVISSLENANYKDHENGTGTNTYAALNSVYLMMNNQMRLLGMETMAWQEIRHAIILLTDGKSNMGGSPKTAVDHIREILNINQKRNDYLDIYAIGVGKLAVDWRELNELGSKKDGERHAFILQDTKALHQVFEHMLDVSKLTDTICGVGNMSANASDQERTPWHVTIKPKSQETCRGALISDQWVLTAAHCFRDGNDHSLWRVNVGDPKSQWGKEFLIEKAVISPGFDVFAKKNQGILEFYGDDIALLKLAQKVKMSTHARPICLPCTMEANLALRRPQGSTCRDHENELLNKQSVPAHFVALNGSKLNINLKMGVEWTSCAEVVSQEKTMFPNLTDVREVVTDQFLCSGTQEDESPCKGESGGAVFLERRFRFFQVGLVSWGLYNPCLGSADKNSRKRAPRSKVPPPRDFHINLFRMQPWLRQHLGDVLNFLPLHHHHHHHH

The target of assay [2] is T2, human C2 D454A (human, UniProt P06681 21-752).
T2 sequence: T1 sequence with A397D, D434A

Assay [3] deals with T3, human C2 R493A (human, UniProt P06681 21-752).
T3 sequence: T1 sequence with A397D, R473A

Assay [4] concerns the target T4, human C2 S469A (human, UniProt P06681 21-752).
T4 sequence: T1 sequence with A397D, S449A

Substitutions are numbered along the chain they refer to.

B1: RF16-214 (antibody, V domains shown)
VH: EVQLLESGGGLVQPGGSLRLSCAASGFTFSWYQMMWVRQAPGKGLEWVSRIYPSGGGTAYADSVKGRFTISRDNSKNTLYLQMNSLRAEDTAVYYCARDAGYGDNWGQGTLVTVSS
VL: QSALTQPPSVSVSPGQTASITCSGDKLGEKYASWYQQKAGQSPVMVIYQDRKRPSGIPERFSGSNSGNTATLTISGTQAMDEADYYCQAWDTRAVVFGGGTKLTVLG
Regarding B1, the Kd was found to be 56.4 nM in assay [1], 111 nM in assay [2], 25.3 nM in assay [3] and 106 nM in assay [4].

The term Kd denotes a measure of binding affinity in units of concentration. A higher Kd goes with a looser complex.

Source of the values: patent US20220332804A1 (CSL INNOVATION, published 2022).
